B1: Homologue 4 mutant (protein)
chain: MANHPLNGSERECLKDAQPIGKADPNERLEVTMLVRRRSHDAFEKHISALAAQGASAKHIDHDEFTKHFGADSADLAAVHAFAQKHGLSVVESHEARRAVVLSGTVAQFDAAFGVSLQQYEHDGGTYRGRTGPIHLPDELNGVVDAVMGLDNRPQARPSFRTRAQGNVRWTARAAGASTFTPVQLASLYDFPQGDGQNQCIGIIELGGGYRPADLKTYFASLNMKAPSVTAVSVDHGRNHPTGDPNGPDGEVMLDIEVAGAVAPGAKIVVYFAPNTDAGFIDAIGTAIHDTKNKPSVISISWSGPESAWTQQAMNAFDQAFQSAAALGVTICAASGDNGSGGGVGDGADHVHFPASSPYALGCGGTSLQASGNGIASETVWNDGANGGATGGGVSSFFALPAWQEGLRVTRAGGAHSPLAMRGVPDVAGNADPVTGYEVRVDGHDMVIGGTSAVAPLWAGLIARINAIKGAPVGYINPHLYKDPLALVDITKGNNDDFHATAGWDACTGLGRPDGKKVKDAVS
B2: Kumamolisin-As (wild type) (protein)
chain: MSDMEKPWKEGEEARAVLQGHARAQAPQAVDKGPVAGDERMAVTVVLRRQRAGELAAHVERQAAIAPHAREHLKREAFAASHGASLDDFAELRRFADAHGLALDRANVAAGTAVLSGPVDAINRAFGVELRHFDHPDGSYRSYLGEVTVPASIAPMIEAVLGLDTRPVARPHFRMQRRAEGGFEARSQAAAPTAYTPLDVAQAYQFPEGLDGQGQCIAIIELGGGYDEASLAQYFASLGVPAPQVVSVSVDGASNQPTGDPSGPDGEVELDIEVAGALAPGAKFAVYFAPNTDAGFLDAITTAIHDPTLKPSVVSISWGGPEDSWTSAAIAAMNRAFLDAAALGVTVLAAAGDSGSTDGEQDGLYHVDFPAASPYVLACGGTRLVASGGRIAQETVWNDGPDGGATGGGVSRIFPLPAWQEHANVPPSANPGASSGRGVPDLAGNADPATGYEVVIDGEATVIGGTSAVAPLFAALVARINQKLGKAVGYLNPTLYQLPADVFHDITEGNNDIANRAQIYQAGPGWDPCTGLGSPIGVRLLQALLPSASQPQPGSTENLYFQSGALEHHHHHH
B3: Homologue 9 (NCBI YP_005042475) (protein)
chain: MTKQPVSGSSDKIHPDDAKCIGDCDPSEQIEVIVMLRRKDEAGFRQMMSRIDAGEAPGQAVSREEFDRRFTASDEDIDKVKAFAKQYGLSVERAETETRSVVLKGTIEQFQKAFDVKLERFQHHNIGEYRGRTGPVNVPDEMHDAVTAVLGLDSKPQARPHFRFRPPFKPLRGAAPASFSPVDLAKLYDFPDGDGAGQCIAIIELGGGYRDSDLSAYFSKLGVKAPTVVPVGVDGGKNAPTGNPNGPDGEVTLDIEIAGAIAPGARIAVYFAPNSDAGFVDAVNRALHDAANKPSVISISWGGPESNWSPQSMSAFNDVLQSAAALGVTVCAASGDGGSADGVGDGADHVDFPASSPYVLGCGGTSLAASGAGIAKEVVWNDGDQGGAGGGGVSGTFALPVWQKGLSVTRNGKHIALAKRGVPDVAGDASPQTGYEVLIDGEDTVVGGTSAVAPLWAALIARINAIDASPAGFVNPKLYKAKTAFRDITEGNNGSFSAAAGWDACTGMGSPDGGKIAAALKPAKPSQSAGQQ
B4: KumaMax™ (protein)
chain: MSDMEKPWKEGEEARAVLQGHARAQAPQAVDKGPVAGDERMAVTVVLRRQRAGELAAHVERQAAIAPHAREHLKREAFAASHGASLDDFAELRRFADAHGLALDRANVAAGTAVLSGPDDAINRAFGVELRHFDHPDGSYRSYLGEVTVPASIAPMIEAVLGLDTRPVARPHFRMQRRAEGGFEARSQAAAPTAYTPLDVAQAYQFPEGLDGQGQCIAIIELGGGYDEASLAQYFASLGVPAPQVVSVSVDGASNQPTGDPKGPDGEVELDIEVAGALAPGAKFAVYFAPDTTAGFLDAITTAIHDPTLKPSVVSISWSGPEDSWTSAAIAAMNRAFLDAAALGVTVLAAAGDSGSTGGEQDGLYHVHFPAASPYVLACGGTRLVASGGRIAQETVWNDGPDGGATGGGVSRIFPLPAWQEHANVPPSANPGASSGRGVPDLAGNADPATGYEVVIDGEATVIGGTSAVAPLFAALVARINQKLGKAVGYLNPTLYQLPADVFHDITEGNNDIANRAQIYQAGPGWDPCTGLGSPIGVRLLQALLPSASQPQPGSTENLYFQSGALE

Tests used:
[1] = target: T1, 33mer peptide (LQLQPFPQPQLPYPQPQLPYPQPQLPYPQPQPF)
T1 chain: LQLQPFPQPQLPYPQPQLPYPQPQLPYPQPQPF

[2] = target: T2, 26mer peptide (FLQPQQPFPQQPQQPYPQQPQQPFPQ)
T2 chain: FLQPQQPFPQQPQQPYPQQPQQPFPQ

[3] = target: T3, fluorescently quenched α-gliadin hexapeptide analogue QXL520-PQPQLP-K(5-FAM)-NH2
T3 chain: PQPQLP

[4] = target: T4, α2-gliadin peptide (PQPQLPYSQPQPFR)
T4 chain: PQPQLPYSQPQPFR

[5] = target: T5, γ-gliadin peptide (IQPQQPAQL)
T5 chain: IQPQQPAQL

[6] = target: T6, Glia_56-79 peptide (LQLQPFPQPQLPYPQPQLPY)
T6 chain: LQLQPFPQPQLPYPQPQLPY

[7] = target: T7, α9-gliadin peptide (QLQPFPQPQLPY)
T7 chain: QLQPFPQPQLPY

[8] = target: T8, fluorescent analogue of gliadin, hexapeptide QPQLPY conjugated to a fluorophore and a quencher
T8 chain: QPQLPY

Protein	activity on peptide (percent) [1]	activity on peptide (percent) [2]	Fold Change in Activity of PQ Hydrolysis Relative to Wild Type Kumamolysin-As [3]	Degradation pattern of 33mer (60 min) [1]	grade and % of peptide after an 80-min incubation [4]	grade and % of peptide after an 80-min incubation [5]	grade and % of peptide after an 80-min incubation [6]	grade and % of peptide after an 80-min incubation [7]	rate of degradation of the fluorescent hexapeptide, pH 4.0, 37° C. [8]
B1	10%	19%	–	–	–	–	–	–	–
B2	18%	–	1 fold	degrades the 33-mer down at only a single location (WT-like)	++ (undetect)	++/-; 39%	+++; 0.2%	++; 2%;	Kumamolisin has some activity breaking down these gliadin substrates
B3	–	52%	–	–	++ (undetect)	++/-; 32%	+; 9%	+/-; 62%	had activity comparable to or better than Kumamolisin under these conditions
B4	0.1%	26%	–	degrades the 33-mer at multiple locations (Max-like)	+/-; 65%	+/-; 55%	++++	++; 0.9%	–

Source: patent US10487318
